Results reported in patent US20240288416.

Tested on: green fluorescent protein (GFP) carrying an ssrA tag at the C-terminus

Question: unfoldase ClpX was tested. Which “controlled translocation through the opened ClpP-nanopore (ionic current traces, ATP present)” value did it give?
Answer: ClpX-assisted transport of GFP across opened ClpP-nanopore in the presence of ATP
